T1: CD134 protein (His-tagged, Sino Biological Inc. 10481-H08H) (human, UniProt P43489 29-216)
T1 construct: bought protein coated on ELISA plates; also called OX40; TNFRSF4; not shown: His tag
T1 sequence (looked up): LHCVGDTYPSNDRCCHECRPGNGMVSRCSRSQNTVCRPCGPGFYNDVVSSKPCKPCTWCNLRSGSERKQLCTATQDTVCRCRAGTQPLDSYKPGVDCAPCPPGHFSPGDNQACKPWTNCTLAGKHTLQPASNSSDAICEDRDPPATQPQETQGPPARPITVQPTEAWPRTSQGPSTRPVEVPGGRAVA

T2: CD134 expressed on the cell surface of HT1080_OX40 cells (human, UniProt P43489 29-277)
T2 construct: whole, on cells; species not restated for the HT1080 transfectant
T2 sequence (looked up): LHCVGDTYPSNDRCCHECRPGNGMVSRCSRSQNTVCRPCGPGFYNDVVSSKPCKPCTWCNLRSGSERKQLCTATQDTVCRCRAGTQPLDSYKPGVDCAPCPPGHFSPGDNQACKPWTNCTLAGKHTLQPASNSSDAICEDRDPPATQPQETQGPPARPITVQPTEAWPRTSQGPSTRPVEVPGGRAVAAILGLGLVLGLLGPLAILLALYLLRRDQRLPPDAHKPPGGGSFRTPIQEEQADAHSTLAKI

B1: P018.S.11.A.H02 (antibody, V domains shown)
VH: QSVEESGGRLVTPGTPLTLTCTVSGFSLSNYAMSWVRQAPGKGLEWIGIISPSGNTYYANWAKGRFTISKTSTTVDLKITSPTTEDTATYFCAREGALYDDYGDYVDAFDPWGPGTLVTVSS
VL: AAVLTQTPSPVSAAVGGTVSISCQSSESVYNNNWLSWYQQKPGQPPKLLIYRASTLASGVPSRFKGSGSGTQFTLTISDVQSDDAATYYCAGGYSSSSDINAFGGGTEVVVK
notes: V regions on human Ig constant parts; also called AB134_46
B2: P018.S.11.A.E03 (antibody, V domains shown)
VH: QSVEESGGRLVTPGTPLTLTCTVSGFSLSSYAVSWVRQAPWKGLEWIGIISSGGNTYYASWATGRFTISKTSTTVDLKITSPTTEDTATYFCARGIHSYDDYLGYKLWGPGTLVTVSS
VL: AIEMTQSPPSLSASVGETVRIRCLASEFLFNAVSWYQQKPEKPPTLLISGASNLESGVPPRFSGSGSGTDYTLTIGGVQAEDVAAYYCLGGYKRADLTFGPGTKVEIK
notes: V regions on human Ig constant parts; also called AB134_34
B3: P018.S.12.A.D02 (antibody, V domains shown)
VH: QSVEESGGRLVTPGTPLTLTCTVSGFSLRHYAMSWVRQAPGKGLEWIGVITTTANTYYASWAKGRFTVSKASSTTVDLKIMSPTIEDTATYFCARAMGLYDSYVDVDDTHDAFDPWGPGTLVTVSS
VL: AQVLTQTASPVSAAVGGTVTINCQSSQSVYNSHVLSWYQQKPGQPPKLLIYDASNLASGVPSRFSASGSGTQFTLTISGVQSDDAATYYCLGGYDDDADNIFAFGGGTEVVVA
notes: V regions on human Ig constant parts; also called AB134_67
B4: P018.S.11.A.G04 (antibody, V domains shown)
VH: QSVEESGGRLVTPGTPLTLTCTASGFDLSSYYMSWVRQAPGKGLEWIGIIYTDSSASYASWAKGRFTISRTSTTVDLKMTSPTTEDTATYFCARGLVVSTDNYNLWGPGTLVTVSS
VL: AAVLTQTPSPVSVAVGGTVTINCQASQSIYNNNYLAWFQQKPGQPPKLLIYYTSTLASGVPSRFKGSGSGTQFTLTINGVQSDDAATYYCLGDVGGGMRVFGGGTEVVVK
notes: V regions on human Ig constant parts; also called AB134_44
B5: P018.S.02.A.F03 (antibody, V domains shown)
VH: QSVEESGGRLVTPGTPLTLTCTASGFSLSRYYMSWVRQAPGKGLEWIGFINTAGSAYYASWAKGRFTISRTSTTVDLKMTSLTTEDTATYFCARDLSRFSLWGRGTLVIVSS
VL: AAVLTQTPSPVSAAVGGTVTINCQASPSVYSDYLSWFQKKPGQPPKLLIYWASTLASGVPSRFSGSGSGTQFTLTISDLESDDVATYYCAGGYSGNSDNWAFGGGTDVVVK
notes: V regions on human Ig constant parts; also called AB134_2
B6: P018.S.11.A.E06 (antibody, V domains shown)
VH: QSVEESGGRLVTPGTPLTLTCTASGFSLSSYYMSWVRQAPGKGLEWIGIIDTGSGDTWYATWAKGRFTISKTSTTVDLKMTSLTTEDTATYFCARVNPEFAHVWPYYFDLWGQGTLVTVSS
VL: ALVMTQTPASVEVAVGGTVTIKCQASQSISSNFLSWYQQNPGQPPKLLIDRASTLESGVPSRFKGSGSGTEFTLTISDLESADAATYYCQQGDSLSNVENAFGGGTELVVK
notes: V regions on human Ig constant parts; also called AB134_37
B7: P018.S.11.A.B04 (antibody, V domains shown)
VH: QEQLEESGGDLVKPEGSLTLTCTASGFSFSSAYYMCWVRQAPGKGLEWIACIDAGSSGSTYYASWAKGRFTISKTSSTTVTLQMTSLTAADTATYFCARDGGSTTGYGWLDLWGQGTLVTVSS
VL: AVVMTQTASPVSAAVGGTVTINCQASQSIGTNYLSWYQQKPGQPPKLLIYEASNLETGVPSRFKGSGSGTEYSLTISDLESADAATYYCLYSYYSSSSAYTFGGGTEVVVK
notes: V regions on human Ig constant parts; also called AB134_25
B8: P018.S.12.A.C05 (antibody, V domains shown)
VH: QSLEESGGRLVTPGTPLTLTCTASGFSLSNYYMNWVRQAPGKGLEWIGIIDKSGSAYYASWARGRFTISKTSTTVGLKIPSPTTEDTATYFCARGYGGYADHGLGLWGQGTLVTVSS
VL: DVVMTQTPASVSEPVGGTVTIKCQASQSIAGWLAWYQQKPGQPPKLLIYQASKLASGVPSRFSGSGSGTEYTLTISDLESDDAATYYCQCTYGSGSGSNGFGGGTEVVVK
notes: V regions on human Ig constant parts; also called AB134_65

Tests used:
[1] = molecular target: T1, CD134 protein (His-tagged, Sino …); experiment: ELISA, coated His-tagged CD134
[2] = molecular target: T2, CD134 expressed on the cell surface of …; experiment: HT1080_OX40 cells, imaging
[3] = molecular target: T2, CD134 expressed on the cell surface of …; experiment: cell-based or functional assay
Further: test concentration or dose not given here.

ELISA [abs. corr.] [1] [abs. corr.]	Cellular binding assay [RFU] [2] [RFU]	Functional assay Cross-linked by F(ab′)2 fragment IL-8 [3] [abs. corr.]	Functional assay IL-8 [3] [abs. corr.]	Binder
2.8	515	1.8	0.783	B1
0.276	318	1.79	0.481	B2
2.64	472	1.77	0.333	B3
2.13	482	1.75	0.014	B4
2.85	140	1.73	0.09	B5
2.05	554	1.72	0.278	B6
1.43	444	1.66	-0.087	B7
2.94	494	1.65	0.228	B8

Reference: patent US20210253725A1 (BIONTECH, published 2021)
